Experimental findings from the RNAGym collection of RNA variant scans (doi:10.7554/elife.80360) are described below.

B1: HDV Ribozyme (parent)
chain: GGCCGGCAUGGUCCCAGCCUCCUCGCUGGCGCCGGCUGGGCAACAUUCCGAGGGGACCGUCCCCUCGGUAAUGGCGAAUGGGACCCA

This series covers variants of B1. Description: self-cleavage, relative activity (ratio to wild type); higher = more cleavage; co-transcriptional.
Take G5A U65C: the self-cleavage is 0.308.
As for C24G G76A, the self-cleavage is 0.101.
In the case of U27G G74A, the self-cleavage came to 0.229.
The result for A16U C32U reads 0.727.
C3U A78G: the self-cleavage turned out to be 0.446.
Turning to G52U C63G, the self-cleavage was 0.277.
Take G1U U72G: the self-cleavage was determined as 0.269.
As for C15A A83C, the self-cleavage is 0.196.
The result for A51G G81U reads 0.356.
The result for C22G A83C reads 0.0898; that for A16G C44G, 0.767; that for G5A A70U, 0.19.
With U23A C41A, the self-cleavage was found to be 1.07.
For the variant G11U A56C, the self-cleavage is 0.332.
On to C18G U27A, for which the self-cleavage stood at 0.0665.
For the variant G38U A43G, the self-cleavage worked out at 0.208.
To G28U A51G belongs 0.117; to A8C C22A, 0.249; to U20A G50C, 0.131.
In the case of U12C C48U, the self-cleavage was found to be 0.534.
As to C15A C44U, the self-cleavage came out at 0.426.
Consider G50A G73A, for which the self-cleavage came out at 0.623.
Take G35U C48U: the self-cleavage worked out at 0.554.
As for C15G C22A, the self-cleavage was 0.0504.
As to G34C G40A, the self-cleavage turned out to be 0.354.
U47A C64U: the self-cleavage came to 1.08.
As for G28A C75U, the self-cleavage stood at 0.0563.
On to G17U C58A, for which the self-cleavage worked out at 0.847.
Consider G11A U79C, for which the self-cleavage was 0.161.
G39U U72G: the self-cleavage was determined as 0.284.
On to G5A U79G, for which the self-cleavage amounted to 0.0923.
As for G25U G40U, the self-cleavage is 0.193.
The result for C15G C84A reads 0.519; that for G53A A87U, 0.992; that for U27C C75A, 0.155.
With A51U U69C, the self-cleavage came to 1.26.
In the case of G53A G80A, the self-cleavage turned out to be 0.218.
Regarding G28U C61U, the self-cleavage is 0.193.
For U23A C24U, the self-cleavage was found to be 0.199.
As to C44U C86G, the self-cleavage is 0.928.
C62U A78U: the self-cleavage worked out at 0.282.
Take C44G G73U: the self-cleavage came to 0.397.
Regarding A16G C86U, the self-cleavage was 1.2.
As for C48U A87G, the self-cleavage amounted to 1.07.
For the variant A71U G80C, the self-cleavage was 0.185.
With C13A G31A, the self-cleavage is 0.0594.
Turning to G25A C30U, the self-cleavage turned out to be 0.143.
For A51C A71C, the self-cleavage is 0.692.
Take G39U C86G: the self-cleavage was determined as 0.784.
On to G29U C44U, for which the self-cleavage was found to be 0.104.
Take G31A U69G: the self-cleavage is 0.284.
Turning to C14G C62U, the self-cleavage was found to be 0.554.
For A43G C84G, the self-cleavage turned out to be 0.201.
The result for U47A C85A reads 0.962; that for G17C C62U, 0.405.
As for C18A U23C, the self-cleavage came out at 0.
Take C14U U69G: the self-cleavage is 0.755.
Regarding C24U C41A, the self-cleavage stood at 0.608.
Turning to C13G G59U, the self-cleavage was 0.0811.
As for C41G C62U, the self-cleavage turned out to be 0.815.
As to C19A C48G, the self-cleavage was 0.22.
For G1U C66A, the self-cleavage amounted to 0.535.
With G28U G55C, the self-cleavage amounted to 0.138.
For C22U C36A, the self-cleavage was 0.0739.
As to C24G A51C, the self-cleavage worked out at 0.
With G11C G53C, the self-cleavage worked out at 0.291.
For the variant A42U A87C, the self-cleavage stood at 0.533.
As to G6A A42G, the self-cleavage came to 0.
To G39U C61U belongs 0.58; to G25A G54C, 0.138.
On to U60A A83C, for which the self-cleavage is 0.554.
The result for U12A A83G reads 0.302.
As to G11U G31U, the self-cleavage stood at 0.129.
Consider G35A A42C, for which the self-cleavage is 0.277.
In the case of C64U G68U, the self-cleavage worked out at 0.607.
To C32A A42G belongs 0.0519; to U37G C84U, 0.111.
With U69C G81U, the self-cleavage is 0.369.
G11A C48G: the self-cleavage worked out at 0.288.
As to U9A C49G, the self-cleavage stood at 0.88.
As for U9A C49A, the self-cleavage is 0.554.
To C64A G73A belongs 0.385.
U20C U37G: the self-cleavage stood at 0.185.
As for C21G G82A, the self-cleavage came to 0.101.
To G1A C19G belongs 0.0875; to G1A G2A, 0.457; to G2C C66U, 0.0373.
For the variant C49U A87U, the self-cleavage was determined as 0.939.
With U47A G55C, the self-cleavage was 1.15.
The result for U27C A43G reads 0.383; that for C84A C85U, 0.639.
As to C21A U46G, the self-cleavage stood at 0.138.
Take U27C A45G: the self-cleavage stood at 0.511.
Take G34A C63G: the self-cleavage worked out at 0.133.
As for U12A C63U, the self-cleavage stood at 0.453.
To C13A G17U belongs 0.169.
In the case of G17A C49A, the self-cleavage turned out to be 0.727.
To G53C A56G belongs 0.962; to U12G C64U, 0.914.
To C21U G81C belongs 0.106.
The result for C21U G81U reads 0.0875; that for U37C C61G, 0.816.
For G31C C86G, the self-cleavage turned out to be 0.188.
The result for G39A C61A reads 0.546; that for A8C C85U, 0.886; that for C30G A56C, 0.0415.
Turning to C18A U47G, the self-cleavage came out at 0.
Consider G10A C24G, for which the self-cleavage turned out to be 0.061.
Consider G2U G5U, for which the self-cleavage was 0.0163.
Regarding G2U G5A, the self-cleavage was determined as 0.0171.
On to G39U A42U, for which the self-cleavage is 0.378.
Take C26G A51C: the self-cleavage came out at 1.13.
For A43C U72C, the self-cleavage stood at 0.578.
With G35U A78U, the self-cleavage was 0.0545.
With G34U G73A, the self-cleavage is 0.109.
Consider C21A U47C, for which the self-cleavage came out at 0.
The result for U47C C61U reads 0.872; that for G11C C85G, 0.831; that for C14A U69C, 0.95.
On to G11C U69C, for which the self-cleavage turned out to be 0.317.
G53A A70U: the self-cleavage stood at 1.02.
In the case of G53A A70C, the self-cleavage was 1.06.
With C30A C86A, the self-cleavage stood at 0.591.
Regarding G1A C48A, the self-cleavage came to 0.
To C48A C84U belongs 0.819; to G76U A83G, 0.787.
In the case of C22U G52A, the self-cleavage came out at 0.709.
In the case of G50A G54C, the self-cleavage is 0.628.
Turning to G39U A45G, the self-cleavage came out at 0.743.
For the variant G38A G68C, the self-cleavage came out at 0.197.
C18A G59C: the self-cleavage was found to be 0.0639.
Turning to G6A G81C, the self-cleavage worked out at 0.0378.
Turning to C30A G52U, the self-cleavage was found to be 0.532.
For G28U C66U, the self-cleavage came to 0.19.
Regarding G39U U65A, the self-cleavage worked out at 0.627.
With G28U U72C, the self-cleavage was 0.0898.
In the case of A56C C86A, the self-cleavage was 0.87.
To C7A C63U belongs 0.652.
G1U G81A: the self-cleavage is 0.25.
On to C19U A43C, for which the self-cleavage turned out to be 0.111.
As for A16G A87G, the self-cleavage is 0.892.
For the variant C30U C36U, the self-cleavage was 0.244.
On to G17A G35C, for which the self-cleavage was determined as 0.156.
Turning to C57A G68C, the self-cleavage is 1.06.
The result for G50A reads 0.98; that for C32U G76A, 0.946.
In the case of G2U C48A, the self-cleavage was found to be 0.0378.
The result for G29A G73A reads 0.143; that for C7U G31U, 0.575.
The result for A16G A71C reads 0.575; that for A51U G54U, 1.02.
The result for G5A C63A reads 0.277; that for G17C G28C, 0.125.
U47A C75A: the self-cleavage was 0.138.
The result for C4A A78C reads 0.0308; that for A42C C58G, 0.26.
On to U27A G80A, for which the self-cleavage is 0.499.
As for C14G A42U, the self-cleavage is 0.252.
The result for C24G A56C reads 0.0723.
The result for G6U A8G reads 0.346; that for C19G A56C, 0.0489.
The result for G2U C84G reads 0.0213; that for C24U A70U, 0.598.
For U47A G52C, the self-cleavage turned out to be 0.978.
For the variant C30G G67U, the self-cleavage is 0.112.
With G5A A51U, the self-cleavage worked out at 0.104.
Take G1C G6A: the self-cleavage amounted to 0.0554.
